Laboratory results published in paper PMC12170185, “Dynamic RNA binding and unfolding by nonsense-mediated mRNA decay factor UPF2”.

T1: UPF1 (UniProt Q92900-2 115-914)
T1 sequence: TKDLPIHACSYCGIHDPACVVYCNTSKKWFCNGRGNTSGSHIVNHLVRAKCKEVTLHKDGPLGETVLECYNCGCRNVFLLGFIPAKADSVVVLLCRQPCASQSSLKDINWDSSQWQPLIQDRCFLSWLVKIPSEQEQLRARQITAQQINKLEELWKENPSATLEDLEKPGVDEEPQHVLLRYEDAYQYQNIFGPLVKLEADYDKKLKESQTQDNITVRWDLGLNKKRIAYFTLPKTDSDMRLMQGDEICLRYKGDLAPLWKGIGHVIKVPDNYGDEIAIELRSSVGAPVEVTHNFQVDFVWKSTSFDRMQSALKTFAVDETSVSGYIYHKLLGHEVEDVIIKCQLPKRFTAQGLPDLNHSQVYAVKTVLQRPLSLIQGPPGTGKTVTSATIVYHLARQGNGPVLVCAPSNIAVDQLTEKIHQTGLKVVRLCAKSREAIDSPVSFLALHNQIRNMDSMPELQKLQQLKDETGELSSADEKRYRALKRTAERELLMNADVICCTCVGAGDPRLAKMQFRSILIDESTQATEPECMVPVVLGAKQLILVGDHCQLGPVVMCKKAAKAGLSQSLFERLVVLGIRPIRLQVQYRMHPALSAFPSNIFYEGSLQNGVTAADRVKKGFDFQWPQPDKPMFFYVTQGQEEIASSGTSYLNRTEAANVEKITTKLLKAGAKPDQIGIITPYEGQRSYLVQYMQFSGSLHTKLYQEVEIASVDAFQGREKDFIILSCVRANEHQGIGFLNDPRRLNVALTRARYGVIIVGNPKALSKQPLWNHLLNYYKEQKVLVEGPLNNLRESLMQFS

T2: UPF3B (UniProt Q9BZI7 41-262)
T2 sequence: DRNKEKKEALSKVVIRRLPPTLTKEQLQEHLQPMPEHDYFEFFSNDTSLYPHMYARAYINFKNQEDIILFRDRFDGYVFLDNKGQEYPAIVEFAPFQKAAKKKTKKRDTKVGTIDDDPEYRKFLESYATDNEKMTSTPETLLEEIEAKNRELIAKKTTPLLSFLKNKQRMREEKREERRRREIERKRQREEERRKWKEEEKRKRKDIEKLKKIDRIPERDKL


What was measured:
UPF2 MIF4G-D3 = UPF2 MIF4G-D3 (UniProt Q9HAU5 761-1054); assay: EMSA; weak unquenched complex band; FA: 25 mM HEPES pH 7.45, 150 mM NaCl, 5% glycerol, 10 nM probe, temperature not stated; EMSA: 250 nM probe in 25 mM HEPES pH 7.45, 100 mM NaCl, 5% glycerol (protein dilution buffer 300 nM [sic] NaCl, 2 mM bME or 1 mM TCEP), 1 h on ice, gel at 4 C; details: protein: recombinant; tags: C-terminal TEV site and His6; label: 5' HEX, 3' BHQ-1; hairpin with bulges
UPF2L [1] = target: T3, UPF2L (UniProt Q9HAU5 121-1227); assay: fluorescence spectroscopy (unquenching); FA: 25 mM HEPES pH 7.45, 150 mM NaCl, 5% glycerol, 10 nM probe, temperature not stated; EMSA: 250 nM probe in 25 mM HEPES pH 7.45, 100 mM NaCl, 5% glycerol (protein dilution buffer 300 nM [sic] NaCl, 2 mM bME or 1 mM TCEP), 1 h on ice, gel at 4 C; details: protein: recombinant; tags: C-terminal TEV site and His6; label: 5' HEX, 3' BHQ-1; hairpin with bulges
UPF2L;UPF3B;UPF1 = UPF2L;UPF3B;UPF1 (human?;human?;human?, UniProt Q9HAU5;Q9BZI7;Q92900-2 121-1227;41-262;115-914, ||); assay: EMSA; FA: 25 mM HEPES pH 7.45, 150 mM NaCl, 5% glycerol, 10 nM probe, temperature not stated; EMSA: 250 nM probe in 25 mM HEPES pH 7.45, 100 mM NaCl, 5% glycerol (protein dilution buffer 300 nM [sic] NaCl, 2 mM bME or 1 mM TCEP), 1 h on ice, gel at 4 C; details: protein: recombinant;recombinant;recombinant; tags: C-terminal TEV site and His6;;; copies: 1;1;1; label: 5' HEX; hairpin with bulges
UPF2 MIF4G-D3;UPF3B = UPF2 MIF4G-D3;UPF3B (human?;human?, UniProt Q9HAU5;Q9BZI7 761-1054;41-262, |); assay: as above; details: protein: recombinant;recombinant; tags: C-terminal TEV site and His6;; copies: 1;1; label: 5' HEX; hairpin with bulges
UPF1 = target: T1, UPF1; assay: as above; details: protein: recombinant; label: 5' HEX; hairpin with bulges
UPF2 MIF4G-D2 = UPF2 MIF4G-D2 (UniProt Q9HAU5 455-757); assay: EMSA; no defined complex band, no remodeling; FA: 25 mM HEPES pH 7.45, 150 mM NaCl, 5% glycerol, 10 nM probe, temperature not stated; EMSA: 250 nM probe in 25 mM HEPES pH 7.45, 100 mM NaCl, 5% glycerol (protein dilution buffer 300 nM [sic] NaCl, 2 mM bME or 1 mM TCEP), 1 h on ice, gel at 4 C; details: protein: recombinant; tags: C-terminal TEV site and His6; label: 5' HEX; hairpin with bulges
UPF2 MIF4G-D1 = UPF2 MIF4G-D1 (UniProt Q9HAU5 120-486); assay: as above; details: protein: recombinant; tags: C-terminal TEV site and His6; label: 5' HEX; hairpin with bulges
UPF2 MIF4G-D1-2 = UPF2 MIF4G-D1-2 (UniProt Q9HAU5 120-757); assay: as above; details: protein: recombinant; tags: C-terminal TEV site and His6; label: 5' HEX; hairpin with bulges
UPF3B = target: T2, UPF3B; assay: EMSA; excess UPF3B gives oligomers in well; FA: 25 mM HEPES pH 7.45, 150 mM NaCl, 5% glycerol, 10 nM probe, temperature not stated; EMSA: 250 nM probe in 25 mM HEPES pH 7.45, 100 mM NaCl, 5% glycerol (protein dilution buffer 300 nM [sic] NaCl, 2 mM bME or 1 mM TCEP), 1 h on ice, gel at 4 C; details: protein: recombinant; label: 5' HEX; hairpin with bulges
UPF2L [2] = target: T3, UPF2L; assay: fluorescence anisotropy; FA: 25 mM HEPES pH 7.45, 150 mM NaCl, 5% glycerol, 10 nM probe, temperature not stated; EMSA: 250 nM probe in 25 mM HEPES pH 7.45, 100 mM NaCl, 5% glycerol (protein dilution buffer 300 nM [sic] NaCl, 2 mM bME or 1 mM TCEP), 1 h on ice, gel at 4 C; details: protein: recombinant; tags: C-terminal TEV site and His6; label: 5' HEX; hairpin with bulges
UPF2L;UPF3B = UPF2L;UPF3B (human?;human?, UniProt Q9HAU5;Q9BZI7 121-1227;41-262, |); assay: EMSA; higher affinity than UPF2L alone, lower than UPF3B; FA: 25 mM HEPES pH 7.45, 150 mM NaCl, 5% glycerol, 10 nM probe, temperature not stated; EMSA: 250 nM probe in 25 mM HEPES pH 7.45, 100 mM NaCl, 5% glycerol (protein dilution buffer 300 nM [sic] NaCl, 2 mM bME or 1 mM TCEP), 1 h on ice, gel at 4 C; details: protein: recombinant;recombinant; tags: C-terminal TEV site and His6;; copies: 1;1; label: 5' HEX; hairpin with bulges
Sequence of UPF2L;UPF3B (Q9HAU5 121-1227, one chain of several): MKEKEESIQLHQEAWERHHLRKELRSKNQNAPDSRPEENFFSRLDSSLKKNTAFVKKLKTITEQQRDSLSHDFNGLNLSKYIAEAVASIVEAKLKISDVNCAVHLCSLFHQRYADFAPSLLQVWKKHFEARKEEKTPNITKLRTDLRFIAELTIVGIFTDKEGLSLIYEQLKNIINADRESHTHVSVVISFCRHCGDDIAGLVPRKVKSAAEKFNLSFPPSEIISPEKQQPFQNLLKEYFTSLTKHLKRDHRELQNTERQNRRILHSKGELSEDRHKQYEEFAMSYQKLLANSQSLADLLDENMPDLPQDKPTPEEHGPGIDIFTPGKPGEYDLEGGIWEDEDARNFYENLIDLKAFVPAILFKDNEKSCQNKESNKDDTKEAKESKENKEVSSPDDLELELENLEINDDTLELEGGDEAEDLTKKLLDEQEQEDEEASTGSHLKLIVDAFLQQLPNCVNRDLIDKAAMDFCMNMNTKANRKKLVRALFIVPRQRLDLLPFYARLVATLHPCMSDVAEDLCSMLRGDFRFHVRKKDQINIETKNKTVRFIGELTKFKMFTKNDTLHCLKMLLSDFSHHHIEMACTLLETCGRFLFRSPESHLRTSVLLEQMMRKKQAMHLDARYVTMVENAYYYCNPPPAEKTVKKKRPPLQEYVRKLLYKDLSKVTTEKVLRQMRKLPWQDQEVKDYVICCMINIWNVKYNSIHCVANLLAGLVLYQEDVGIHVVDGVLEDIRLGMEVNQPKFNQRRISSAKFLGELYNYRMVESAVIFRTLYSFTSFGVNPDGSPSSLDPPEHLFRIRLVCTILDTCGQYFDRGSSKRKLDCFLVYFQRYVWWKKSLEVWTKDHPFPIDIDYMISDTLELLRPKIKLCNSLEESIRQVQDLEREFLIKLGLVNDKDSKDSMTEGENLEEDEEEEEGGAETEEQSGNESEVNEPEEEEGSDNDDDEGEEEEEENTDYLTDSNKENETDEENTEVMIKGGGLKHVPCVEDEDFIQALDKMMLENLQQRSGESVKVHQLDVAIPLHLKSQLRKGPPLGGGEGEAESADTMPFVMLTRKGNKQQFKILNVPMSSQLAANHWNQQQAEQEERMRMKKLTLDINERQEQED

T3 sequence (Q9HAU5 121-1227): as the sequence (Q9HAU5 121-1227, one chain of several) above
Sequence of UPF2 MIF4G-D1-2 (Q9HAU5 120-757): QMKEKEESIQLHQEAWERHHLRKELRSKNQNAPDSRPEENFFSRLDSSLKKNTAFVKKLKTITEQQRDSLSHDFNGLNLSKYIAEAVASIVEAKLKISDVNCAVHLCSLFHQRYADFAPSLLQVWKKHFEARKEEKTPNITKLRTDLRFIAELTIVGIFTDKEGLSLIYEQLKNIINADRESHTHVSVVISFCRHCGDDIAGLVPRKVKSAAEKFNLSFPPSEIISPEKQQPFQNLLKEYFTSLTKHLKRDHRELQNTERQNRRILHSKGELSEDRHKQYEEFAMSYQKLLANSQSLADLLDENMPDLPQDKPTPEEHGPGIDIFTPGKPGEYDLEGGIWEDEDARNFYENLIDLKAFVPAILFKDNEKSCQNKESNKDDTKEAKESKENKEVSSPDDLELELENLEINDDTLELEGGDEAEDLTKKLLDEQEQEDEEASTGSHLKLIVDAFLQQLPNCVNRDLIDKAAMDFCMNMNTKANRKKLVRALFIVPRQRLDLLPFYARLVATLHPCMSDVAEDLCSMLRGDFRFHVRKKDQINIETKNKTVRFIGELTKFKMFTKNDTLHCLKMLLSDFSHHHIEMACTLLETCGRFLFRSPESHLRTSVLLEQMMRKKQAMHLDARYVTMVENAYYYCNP
Sequence of UPF2 MIF4G-D3 (Q9HAU5 761-1054): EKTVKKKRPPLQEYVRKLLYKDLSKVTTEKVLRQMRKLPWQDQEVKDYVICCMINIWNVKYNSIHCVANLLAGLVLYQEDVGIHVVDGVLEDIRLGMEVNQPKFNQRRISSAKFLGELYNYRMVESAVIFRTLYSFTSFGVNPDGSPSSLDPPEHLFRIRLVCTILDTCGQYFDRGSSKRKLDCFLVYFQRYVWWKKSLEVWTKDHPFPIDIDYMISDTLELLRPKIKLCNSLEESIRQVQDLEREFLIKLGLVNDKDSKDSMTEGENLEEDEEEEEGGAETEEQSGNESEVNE
Sequence of UPF2 MIF4G-D3;UPF3B (Q9HAU5 761-1054, one chain of several): as the sequence (Q9HAU5 761-1054) above
Sequence of UPF2L;UPF3B;UPF1 (Q9HAU5 121-1227, one chain of several): as the sequence (Q9HAU5 121-1227, one chain of several) above
Sequence of UPF2 MIF4G-D2 (Q9HAU5 455-757): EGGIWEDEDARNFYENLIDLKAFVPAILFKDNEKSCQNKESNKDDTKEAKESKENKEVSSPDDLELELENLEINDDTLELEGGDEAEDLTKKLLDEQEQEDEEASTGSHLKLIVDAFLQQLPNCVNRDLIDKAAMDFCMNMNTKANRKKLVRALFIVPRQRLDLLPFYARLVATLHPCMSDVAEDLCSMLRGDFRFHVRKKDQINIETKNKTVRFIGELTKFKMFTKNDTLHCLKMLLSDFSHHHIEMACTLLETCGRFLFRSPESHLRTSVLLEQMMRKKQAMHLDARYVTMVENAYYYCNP
Sequence of UPF2 MIF4G-D1 (Q9HAU5 120-486): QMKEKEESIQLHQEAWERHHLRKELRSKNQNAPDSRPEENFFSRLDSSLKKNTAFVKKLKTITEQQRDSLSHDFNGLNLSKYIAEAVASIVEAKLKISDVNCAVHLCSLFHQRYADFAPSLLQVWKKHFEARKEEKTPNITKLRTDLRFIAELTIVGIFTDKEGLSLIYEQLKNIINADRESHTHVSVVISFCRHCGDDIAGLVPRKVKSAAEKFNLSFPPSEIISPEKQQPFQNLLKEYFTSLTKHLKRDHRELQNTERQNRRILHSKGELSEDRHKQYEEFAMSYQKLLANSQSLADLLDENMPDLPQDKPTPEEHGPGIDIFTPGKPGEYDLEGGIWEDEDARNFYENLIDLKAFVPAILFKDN

Binder	binding result (UPF2 MIF4G-D3)	binding result (UPF2L [1])	binding result (UPF2L;UPF3B;UPF1)	binding result (UPF2 MIF4G-D3;UPF3B)	binding result (UPF1)	binding result (UPF2 MIF4G-D2)	binding result (UPF2 MIF4G-D1)	binding result (UPF2 MIF4G-D1-2)	binding result (UPF3B)	Kd (UPF2L [2]) [µM]	binding result (UPF2L;UPF3B)
CCCUGAGCUGACGCAGCACCUGGG (structured_RNA, 3' BHQ-1) [HEX_hp-RNA_BHQ molecular beacon]	binds	binds	–	–	–	–	–	–	–	–	–
CCCUGAGCUGACGCAGCACCUGGG (structured_RNA) [24 nt hp-RNA]	–	–	binds	binds	binds	no binding	no binding	no binding	binds	0.223	binds
